Laboratory results reported in patent US20050090643A1.

B1: CVN Gln50 deletion mutant (ΔQ50-CVN), obligate domain-swapped dimer of cyanovirin (protein)
chain: LGKFSQTCYNSAIQGSVLTSTCERTNGGYNTSSIDLNSVIENVDGSLKWPSNFIETCRNTQLAGSSELAAECKTRAQQFVSTKINLDDHIANIDGTLKYE
B2: dimeric wild-type CVN (protein)
chain: LGKFSQTCYNSAIQGSVLTSTCERTNGGYNTSSIDLNSVIENVDGSLKWQPSNFIETCRNTQLAGSSELAAECKTRAQQFVSTKINLDDHIANIDGTLKYE
B3: monomeric wild-type CVN (protein)
chain: LGKFSQTCYNSAIQGSVLTSTCERTNGGYNTSSIDLNSVIENVDGSLKWQPSNFIETCRNTQLAGSSELAAECKTRAQQFVSTKINLDDHIANIDGTLKYE

The binders below were run against viral envelope glycoprotein gp120 of human immunodeficiency virus (HIV-1) (HIV-1) (assay: cell-based or functional assay).
In the case of B1, the IC50 in quantitative vaccinia virus-based HIV-1 fusion assay is reported as 9 nM and the average KD from non-linear least squares best fitting of HIV-1 fusion assay titration data to a two-independent site model is reported as 22 nM. B2 was tested, and the IC50 in quantitative vaccinia virus-based HIV-1 fusion assay was 9 nM and the average KD from non-linear least squares best fitting of HIV-1 fusion assay titration data to a two-independent site model was 21 nM. B3 showed an IC50 in quantitative vaccinia virus-based HIV-1 fusion assay of 32 nM and an average KD from non-linear least squares best fitting of HIV-1 fusion assay titration data to a two-independent site model of 67 nM.
